Data from publication PMC8385403.

Columns and labels:
His-survivin [1] = target: His-survivin (UniProt O15392); assay: pull-down (quantification of Coomassie-stained SDS-PAGE); conditions: mean ± SEM of three independent experiments; parent: est. 1.0; read off a plot
His-survivin [2] = target: His-survivin (UniProt O15392); assay: pull-down; direct pull-down; His-survivin proteins (40-45 μg) held on Ni2+-NTA beads, Rod-B proteins (40-45 μg) added; Buffer B: 20 mM Tris-HCl pH 8, 275 mM NaCl, 5% glycerol, 1% NP-40, 30 mM imidazole; 4 °C; eluted with 250 mM imidazole; Coomassie-stained SDS-PAGE
Rod-B = assay: co-sedimentation; filament disassembly assay without His-Aurora-B; Rod-B proteins in kinase buffer (20 mM Tris pH 7.5, 10 mM MgCl2, 1 mM DTT, 50 μM ATP), 60 min at 30 °C, then high-speed centrifugation; filaments to nonfilamentous fraction
[3] = target: Rod-B phosphorylated by His-Aurora-B; assay: co-sedimentation; filament disassembly assay with His-Aurora-B; Rod-B proteins with recombinant His-Aurora-B in kinase buffer (20 mM Tris pH 7.5, 10 mM MgCl2, 1 mM DTT, 50 μM ATP), 60 min at 30 °C, then high-speed centrifugation; filaments to nonfilamentous fraction
Rod-B^T1847A [4] = assay: co-sedimentation; filament disassembly assay without His-Aurora-B; Rod-B proteins in kinase buffer (20 mM Tris pH 7.5, 10 mM MgCl2, 1 mM DTT, 50 μM ATP), 60 min at 30 °C, then high-speed centrifugation; filaments to nonfilamentous fraction
Rod-B^T1847A [5] = assay: co-sedimentation; filament disassembly assay with His-Aurora-B; Rod-B proteins with recombinant His-Aurora-B in kinase buffer (20 mM Tris pH 7.5, 10 mM MgCl2, 1 mM DTT, 50 μM ATP), 60 min at 30 °C, then high-speed centrifugation; filaments to nonfilamentous fraction

Rod-B, sequence (P35580 whole entry): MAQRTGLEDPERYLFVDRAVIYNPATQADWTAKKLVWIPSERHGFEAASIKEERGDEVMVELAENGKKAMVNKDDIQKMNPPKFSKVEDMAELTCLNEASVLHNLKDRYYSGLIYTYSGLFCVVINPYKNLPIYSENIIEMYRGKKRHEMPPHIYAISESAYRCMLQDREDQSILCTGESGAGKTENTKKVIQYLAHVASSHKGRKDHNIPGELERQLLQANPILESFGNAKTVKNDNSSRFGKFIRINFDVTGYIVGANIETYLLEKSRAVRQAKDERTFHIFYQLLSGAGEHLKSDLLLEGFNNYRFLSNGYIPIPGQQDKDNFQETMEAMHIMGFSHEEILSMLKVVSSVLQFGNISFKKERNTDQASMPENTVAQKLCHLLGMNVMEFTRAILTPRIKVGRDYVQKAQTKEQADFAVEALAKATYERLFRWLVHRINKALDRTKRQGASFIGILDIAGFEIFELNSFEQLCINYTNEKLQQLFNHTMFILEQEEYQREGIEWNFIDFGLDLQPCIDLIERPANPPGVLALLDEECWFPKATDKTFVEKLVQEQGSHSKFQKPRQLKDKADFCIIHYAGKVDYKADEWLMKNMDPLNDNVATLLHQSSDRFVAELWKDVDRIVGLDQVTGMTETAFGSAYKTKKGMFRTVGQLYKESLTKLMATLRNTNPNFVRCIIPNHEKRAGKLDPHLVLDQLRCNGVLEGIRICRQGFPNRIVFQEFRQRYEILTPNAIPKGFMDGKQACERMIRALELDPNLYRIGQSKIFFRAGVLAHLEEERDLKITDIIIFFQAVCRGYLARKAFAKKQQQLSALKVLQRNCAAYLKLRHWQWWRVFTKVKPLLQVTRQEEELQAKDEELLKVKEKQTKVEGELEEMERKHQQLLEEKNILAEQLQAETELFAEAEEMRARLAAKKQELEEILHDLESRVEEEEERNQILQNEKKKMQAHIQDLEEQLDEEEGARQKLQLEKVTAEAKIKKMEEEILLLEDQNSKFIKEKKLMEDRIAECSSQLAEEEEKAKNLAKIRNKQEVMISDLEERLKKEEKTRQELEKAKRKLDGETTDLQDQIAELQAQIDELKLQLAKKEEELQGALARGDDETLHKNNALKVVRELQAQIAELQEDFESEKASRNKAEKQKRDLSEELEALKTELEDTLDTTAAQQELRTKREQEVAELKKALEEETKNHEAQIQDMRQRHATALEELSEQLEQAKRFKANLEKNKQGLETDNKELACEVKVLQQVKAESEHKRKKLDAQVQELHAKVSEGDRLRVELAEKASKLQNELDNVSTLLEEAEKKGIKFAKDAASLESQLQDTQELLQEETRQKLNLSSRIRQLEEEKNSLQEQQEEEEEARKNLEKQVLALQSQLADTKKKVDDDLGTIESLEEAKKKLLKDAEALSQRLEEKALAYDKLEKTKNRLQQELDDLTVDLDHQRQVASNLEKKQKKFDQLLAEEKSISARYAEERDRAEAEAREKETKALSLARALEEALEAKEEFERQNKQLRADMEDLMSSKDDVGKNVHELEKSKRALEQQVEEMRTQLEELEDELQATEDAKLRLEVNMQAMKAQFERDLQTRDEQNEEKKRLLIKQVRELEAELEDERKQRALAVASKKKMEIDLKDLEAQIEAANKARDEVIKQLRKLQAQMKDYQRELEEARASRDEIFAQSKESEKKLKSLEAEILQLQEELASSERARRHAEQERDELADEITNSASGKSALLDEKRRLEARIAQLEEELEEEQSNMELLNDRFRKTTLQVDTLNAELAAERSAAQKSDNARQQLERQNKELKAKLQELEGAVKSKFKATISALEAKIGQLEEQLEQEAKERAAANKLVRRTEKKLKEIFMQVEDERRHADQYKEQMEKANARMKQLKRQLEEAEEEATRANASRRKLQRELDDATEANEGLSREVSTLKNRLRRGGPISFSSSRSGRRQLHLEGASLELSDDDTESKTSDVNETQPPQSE
Rod-B phosphorylated by His-Aurora-B, sequence (P35580 whole entry): as above

Rod-B T1847A
ratio to parent (His-survivin [1]): 1.1

Rod-B^T1847D (domain or fragment)
percent reduction of binding to survivin relative to Rod-B (His-survivin [2]): 80%

Rod-B (domain or fragment)
percent in the nonfilamentous fraction (Rod-B): 28%

Rod-B phosphorylated by His-Aurora-B (domain or fragment)
percent in the nonfilamentous fraction [3]: 42%

Rod-B^T1847A (domain or fragment)
percent in the nonfilamentous fraction (Rod-B^T1847A [4]): 34% | percent in the nonfilamentous fraction (Rod-B^T1847A [5]): 36.8%
